Assay results as given in the Human Domainome abundance scans (Beltran et al. 2025).
± gives the uncertainty stated by the source.

B1: Double-stranded RNA-binding protein Staufen homolog 1, residues 183 to 249; numbered along this chain, O95793 (parent)
chain: KSEISQVFEIALKRNLPVNFEVARESGPPHMKNFVTKVSVGEFVGEGEGKSKKISKKNAAIAVLEEL

Variants of: B1
Experiment: abundance fitness (aPCA) (normalised: wild type 0, dead -1); higher = more abundant; growth selection in yeast, the domain comes from the species named
Conditions: Homo sapiens

G49T and G49E are within error of each other in abundance fitness: -0.8 ± 0.065 for the first, -0.74 ± 0.052 for the second.

Going from G49S to G49C, the abundance fitness falls from -0.483 ± 0.043 to -0.911 ± 0.13.

G49M and G49L are within error of each other in abundance fitness: -0.729 ± 0.056 for the first, -0.802 ± 0.045 for the second.

First: G49D
Second: G49N
The abundance fitness of the first is higher: -0.519 ± 0.064 for the first, -0.748 ± 0.11 for the second.

First: G49F
Second: G49A
The abundance fitness of the first is lower: -1.14 ± 0.17 for the first, -0.485 ± 0.043 for the second.

First: G49W
Second: G49P
The abundance fitness of the first is lower: -1.14 ± 0.11 for the first, -0.854 ± 0.08 for the second.

First: G49Y
Second: G49H
The abundance fitness of the first is lower: -1 ± 0.18 for the first, -0.53 ± 0.15 for the second.

G49I and G49V are within error of each other in abundance fitness: -0.791 ± 0.094 for the first, -0.694 ± 0.04 for the second.

Compared with G49Q, V44M is higher in abundance fitness: -0.741 ± 0.069 for the first, -0.045 ± 0.068 for the second.

V44L and V44W are within error of each other in abundance fitness: -0.14 ± 0.052 for the first, -0.112 ± 0.049 for the second.

Compared with V44G, V44P is lower in abundance fitness: -0.414 ± 0.04 for the first, -0.789 ± 0.11 for the second.

V44E and V44R are within error of each other in abundance fitness: -0.132 ± 0.058 for the first, -0.051 ± 0.035 for the second.

V44T and V44K are within error of each other in abundance fitness: -0.015 ± 0.061 for the first, -0.016 ± 0.053 for the second.

V44A and V44H are within error of each other in abundance fitness: -0.18 ± 0.044 for the first, -0.102 ± 0.15 for the second.

V44C and V44Q are within error of each other in abundance fitness: 0.033 ± 0.1 for the first, -0.074 ± 0.059 for the second.

V44Y and V44D are within error of each other in abundance fitness: -0.099 ± 0.11 for the first, -0.238 ± 0.073 for the second.

V44F and V44I are within error of each other in abundance fitness: -0.195 ± 0.15 for the first, -0.04 ± 0.075 for the second.

First: V44S
Second: E46G
The abundance fitness of the first is higher: -0.086 ± 0.044 for the first, -0.449 ± 0.067 for the second.

E46M and E46W are within error of each other in abundance fitness: 0.028 ± 0.088 for the first, 0.039 ± 0.069 for the second.

E46Y and E46A are within error of each other in abundance fitness: -0.013 ± 0.13 for the first, -0.151 ± 0.055 for the second.

First: E46S
Second: E46P
The abundance fitness of the first is higher: -0.051 ± 0.069 for the first, -0.939 ± 0.12 for the second.

E46Q and E46V are within error of each other in abundance fitness: 0.051 ± 0.079 for the first, 0.036 ± 0.048 for the second.

E46T and E46H are within error of each other in abundance fitness: 0.071 ± 0.06 for the first, 0.011 ± 0.088 for the second.

E46C and E46F are within error of each other in abundance fitness: -0.034 ± 0.1 for the first, 0.076 ± 0.14 for the second.

E46I and E46K are within error of each other in abundance fitness: 0.052 ± 0.14 for the first, -0.04 ± 0.084 for the second.

Going from E46N to S51E, the abundance fitness falls from 0.01 ± 0.16 to -0.553 ± 0.098.

S51H and S51W are within error of each other in abundance fitness: -1 ± 0.26 for the first, -0.578 ± 0.19 for the second.

First: S51R
Second: S51G
The abundance fitness of the first is higher: -0.244 ± 0.07 for the first, -0.791 ± 0.09 for the second.

First: S51T
Second: S51Q
The abundance fitness of the first is higher: 0.056 ± 0.067 for the first, -0.445 ± 0.081 for the second.

Going from S51K to S51M, the abundance fitness falls from -0.344 ± 0.077 to -0.587 ± 0.095.

S51Y and S51I are within error of each other in abundance fitness: -0.657 ± 0.087 for the first, -0.904 ± 0.18 for the second.

Going from S51P to S51F, the abundance fitness falls from -0.449 ± 0.074 to -0.929 ± 0.1.

Going from S51V to S51L, the abundance fitness falls from -0.615 ± 0.071 to -0.797 ± 0.068.

K52N and K52H are within error of each other in abundance fitness: -0.622 ± 0.088 for the first, -0.518 ± 0.084 for the second.

K52G and K52F are within error of each other in abundance fitness: -0.603 ± 0.046 for the first, -0.481 ± 0.082 for the second.

First: K52D
Second: K52A
The abundance fitness of the first is lower: -0.587 ± 0.067 for the first, -0.125 ± 0.043 for the second.

Compared with K52M, K52C is lower in abundance fitness: -0.29 ± 0.058 for the first, -0.432 ± 0.075 for the second.

K52L and K52I are within error of each other in abundance fitness: -0.228 ± 0.039 for the first, -0.175 ± 0.074 for the second.

Going from E48L to E48Q, the abundance fitness rises from -0.044 ± 0.044 to 0.054 ± 0.051.

Compared with E48P, E48F is higher in abundance fitness: -0.808 ± 0.07 for the first, -0.01 ± 0.098 for the second.

E48Y and E48M are within error of each other in abundance fitness: 0.002 ± 0.093 for the first, -0.013 ± 0.057 for the second.

E48S and E48A are within error of each other in abundance fitness: 0.007 ± 0.044 for the first, 0.001 ± 0.046 for the second.

Compared with E48D, E48C is higher in abundance fitness: -0.427 ± 0.1 for the first, 0.064 ± 0.062 for the second.

E48H and E48K are within error of each other in abundance fitness: -0.061 ± 0.11 for the first, 0.089 ± 0.06 for the second.

E48N and E48T are within error of each other in abundance fitness: -0.045 ± 0.07 for the first, 0.037 ± 0.058 for the second.

E48V and E48R are within error of each other in abundance fitness: 0.048 ± 0.047 for the first, 0.104 ± 0.032 for the second.

E48W and E48I are within error of each other in abundance fitness: -0.011 ± 0.043 for the first, 0.128 ± 0.1 for the second.

G45E and G45H are within error of each other in abundance fitness: -0.484 ± 0.053 for the first, -0.619 ± 0.15 for the second.

Going from G45D to G45C, the abundance fitness rises from -0.645 ± 0.076 to -0.038 ± 0.082.

First: G45P
Second: G45M
The abundance fitness of the first is lower: -0.975 ± 0.076 for the first, -0.585 ± 0.072 for the second.

Compared with G45T, G45I is lower in abundance fitness: -0.246 ± 0.048 for the first, -0.487 ± 0.089 for the second.

Going from G45L to G45F, the abundance fitness rises from -0.591 ± 0.047 to -0.373 ± 0.075.

G45Y and G45Q are within error of each other in abundance fitness: -0.422 ± 0.096 for the first, -0.395 ± 0.066 for the second.

Compared with G45V, G45K is higher in abundance fitness: -0.345 ± 0.044 for the first, -0.108 ± 0.051 for the second.

First: G45R
Second: G45A
The abundance fitness of the first is lower: -0.265 ± 0.04 for the first, 0.069 ± 0.039 for the second.

G45W and G45N are within error of each other in abundance fitness: -0.582 ± 0.065 for the first, -0.594 ± 0.12 for the second.

Compared with G45S, G47S is lower in abundance fitness: -0.146 ± 0.04 for the first, -0.667 ± 0.048 for the second.

G47I and G47C are within error of each other in abundance fitness: -0.897 ± 0.15 for the first, -0.976 ± 0.11 for the second.

G47T and G47V are within error of each other in abundance fitness: -0.868 ± 0.082 for the first, -0.834 ± 0.057 for the second.

G47Y and G47M are within error of each other in abundance fitness: -0.945 ± 0.1 for the first, -0.874 ± 0.07 for the second.

G47H and G47Q are within error of each other in abundance fitness: -0.555 ± 0.11 for the first, -0.611 ± 0.065 for the second.

Going from G47W to G47P, the abundance fitness rises from -1.01 ± 0.086 to -0.763 ± 0.097.

G47K and G47E are within error of each other in abundance fitness: -0.81 ± 0.093 for the first, -0.773 ± 0.063 for the second.

Compared with G47F, G47R is higher in abundance fitness: -0.945 ± 0.11 for the first, -0.627 ± 0.041 for the second.

Going from E42Y to E42W, the abundance fitness falls from -0.131 ± 0.12 to -0.3 ± 0.044.

E42S and E42Q are within error of each other in abundance fitness: 0.028 ± 0.045 for the first, -0.05 ± 0.05 for the second.

E42R and E42T are within error of each other in abundance fitness: -0.032 ± 0.033 for the first, -0.048 ± 0.051 for the second.

F43L and F43T are within error of each other in abundance fitness: -0.126 ± 0.043 for the first, -0.195 ± 0.058 for the second.

Compared with F43M, F43G is lower in abundance fitness: -0.255 ± 0.077 for the first, -0.63 ± 0.042 for the second.

First: F43E
Second: F43I
The abundance fitness of the first is lower: -0.44 ± 0.063 for the first, -0.197 ± 0.1 for the second.

Going from F43H to F43S, the abundance fitness falls from 0.014 ± 0.099 to -0.272 ± 0.05.

F43P and F43N are within error of each other in abundance fitness: -0.649 ± 0.087 for the first, -0.437 ± 0.13 for the second.

Compared with F43D, F43R is higher in abundance fitness: -0.628 ± 0.1 for the first, -0.482 ± 0.036 for the second.

Compared with F43C, F43A is higher in abundance fitness: -0.262 ± 0.085 for the first, -0.124 ± 0.047 for the second.

First: F43K
Second: K50V
The abundance fitness of the first is lower: -0.317 ± 0.063 for the first, -0.127 ± 0.045 for the second.

Going from K50E to K50G, the abundance fitness falls from -0.004 ± 0.054 to -0.184 ± 0.046.

First: K50C
Second: K50F
The abundance fitness of the first is higher: -0.036 ± 0.07 for the first, -0.406 ± 0.081 for the second.

K50I and K50Y are within error of each other in abundance fitness: -0.145 ± 0.065 for the first, -0.187 ± 0.083 for the second.

Going from K50T to K50P, the abundance fitness rises from -0.048 ± 0.05 to 0.078 ± 0.066.

K50R and K50Q are within error of each other in abundance fitness: -0.006 ± 0.034 for the first, -0.036 ± 0.051 for the second.

Compared with K50W, K50S is higher in abundance fitness: -0.221 ± 0.051 for the first, -0.007 ± 0.044 for the second.

K50M and K50D are within error of each other in abundance fitness: -0.117 ± 0.053 for the first, -0.17 ± 0.08 for the second.

K50N and K50A are within error of each other in abundance fitness: 0.009 ± 0.09 for the first, -0.035 ± 0.047 for the second.

Work on K50L yielded an abundance fitness of -0.132 ± 0.042.
